Measured values from the nanobody polyreactivity screen of Harvey et al. (2022).

Assay: yeast display, Sf9 membrane polyspecificity reagent, FACS + sequencing; frameworks hold sequencing errors
Outline: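 Galactose induction of a Saccharomyces cerevisiae BJ5465 synthetic nanobody display library ran 36–48 hours. The cells were then stained for 1 hour at 4 °C with 10% biotinylated, detergent-solubilized Sf9 membrane reagent, pulled down on streptavidin microbeads and FACS-sorted into low and high (top ~1%) gates on expression and reagent-binding fluorescence. Labels for polyreactivity follow the gate of origin.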

Row | Sequence | polyreactivity (PSR sort gate)
1 | QVQLVESGAGLVQAGGSLRLSCAASGSSFYFNAMGLYRQAPGKERELVAAIDWSGGSTYYADSVKGRFTISRDNAKNTVYLQMNSLKPEDTAVYYCAAPYHYYGNTVGYADYDYWGQVTQVTVSS | low polyreactivity
2 | QVQLVESGGGLVQAGGSLRLSCAASGSTFKIYVMGWYRQAPGKERELVAAISWSGGRTFYADSVKGRFTISRDNAKNTVYLQMNSLKPEDTAVYYCAARWQRYRSGTGDYWGQGTQVTVSS | high polyreactivity
3 | QVQLVESGGGLVQAGGTLRLSCAASGRIFTHNAMGWYRQAPGKERELVAAITSGGRTTYADSVKGRFTISRDNAKNTVYLQMNSLKPEDTAVYYCNADTGLGSLDFDKRDYWGQGTQVNVSS | low polyreactivity
4 | QVQLVESGGGLVQAGGSLRLSCAASGRTFYYNAMVWYRQAPGKERELVAAITWSGGRTFYADSVKGRFTISRDNAKNTVYLQMNSLKPEDTAVYYCNAYPVFRSYDYWGQGTQVTVSS | high polyreactivity
5 | QVQLVESGGGLVQAGGSLRLSCAASGSTYAGNAIGWSRQAPRKERELVAAIDSSTGSTYYADSVKGRFTISRDNAKNTVYLQMNSLNPEDTAVYYCNKTSFLVKLDYWGQGTQVTVSS | low polyreactivity
6 | QVQLVESGGGLVQAGGSLRLSCAASGFTFRYYAMGWYRQAPGKERELVAAISSRGGTTYYADSVKGRFTISRDNAKNTVYLQMNSLKPEDTAVYYCAAVRPPSYYYWGQGTQVTVSS | high polyreactivity
7 | QVQLVESGGGLVQAGGSLRLSCAASGSIFAKNAMGWYRQAPGKERELVAAISRGGNSYYADSVKGRFTISRDNAKNPVYFPMNSLTPEDTAVYYCAADYYWYVWEYPTYWYEYWGQGTQVTVSS | high polyreactivity
8 | QVQLVESGGGLVQAGGSLRLSCAASGFIFGYNAMGWYRQAPGKERELVAAITASGGSTYYADSVKGRFTISRDNAKNTVYLQMNSLKPEDTAVYYCATVLRKNGERVNRLYYWGQGTQVTVSS | high polyreactivity
9 | QVQLVESGGGLVQAGGSLSLSCAASGFTFYGNAIGGNRQAPGKERELVASISTYYADSVKGRFTISRDNAKNTVYLQMNSLKPEDTAVYYCAATHYDRTYYVIYDYWGQGTQVTVSS | low polyreactivity
10 | QVQLVESGAGLVQAGGILRLSCAASGRTFYRNTMGWYRQAPGKEREFVAAISATAGRTYYADSVKGRFTISRDNAKNTVYLQMNSLKPEDTAVYYCAAVPLRNRLPNSWPALDYWGQGTQVTVSS | high polyreactivity
11 | QVQLVESGGGLVQAGGSLRLSCAASGSTFVPYAMGWSSQAPGKERELVADISWSGGSTYYADSVKVRFTISRDNAKNTVYLQMNSLKPEDTAVYYCAARSIYKSKYDYWGQGTQVTVSS | high polyreactivity
12 | QVQLVESGGGLVQAGGSLRLSCAASGSIFGGNTMGWYRQAPGKERELVAAIRYSGGSTYYADSVKGRFTISRDNAKNTVYLQMNSLKPEDTAVYYCATSYRQYGYYWYDYWGQGTQVTVSS | high polyreactivity
13 | QVQLVESGGGLVQAGGSLRLSCAATGSIFVPNTMGWYRQAPGKERELVADINSDTGRTYYADSVKGRFTISRDNAKNTVYLQMNSLKPEDTAVYYCAAEWYSFWSSVEYDYWGQGTQVTVSS | low polyreactivity
14 | QVQLVESGGGLVQSGGSLRLSCAASGSTFVSYDMGWYRQAPGKERELVADISWSGVSTYADSVKGRFTNSRDNAKNTVYLQMNSLKPEDTAVYYCAKDCDLYQRGGYYWGQGTQVTVSS | low polyreactivity
15 | QLQLVESGGGLVQAGGSLRLSCAASGSTFVYNAMGWYRQAPGKERELVAAISTGGSTYYADSVKGRFTISRDNAKNTVYLQMNSLKPEDTAVYYCAAGYSWGYSSQKLRYGYWGQGTQVTVSS | high polyreactivity
16 | QVHLVESGGGFFQAGGSLRLSCAASVITFPLYAMGWYRPAPGKERELVSAISRNGGRTYYADSVKGRFTISRDNAKNTVYLQMNSLKPEDTAVYYCAKVSRGSVSSPRDDYWGQGTQVNVSS | high polyreactivity
17 | QVQLVESGGGLVLAGGSLRLSCAASGFILLYYAMGWYREATGKERELVAAISWTGGRTYYADSVKGRFTISRDNAKNTVYLQMNRLKPEDTAVYYCNTFKFFCRKYGYWGQGTQVTVSS | low polyreactivity
18 | QVQLVESVGGLVQAGGSLRLSCAASGSIFFNYTMGWYRQAPGKERELVAAINSSGGRTNYADSVKGRFTISRDNAKNTVYLQMNSLKPEDTAVYYCAAVYYDVWYVYWGQGTQVTVSS | low polyreactivity
19 | QVQLVESGGGLVQAGGSLRVSCAASGRIFWYNDMGWYRQAPGKERELVAAITARGTRTHYADSVKGRFTISRDNAKKTVYLQMNSLKPEDTAVYYCAKGWYTVVWDAPVFSERGEYWGQGTQVTVSS | low polyreactivity
20 | QVQLVESGGGLVQAGGSHRLSCAASGRTFYTNAMGWYRQEPGKERELVARIRRGGTTNYADSVKGRFTISRDNAKNTVYLQMNILKPEDTAVSYCNARRHGGVQPFYFYRNQYELDYWGLGTQVTVSS | high polyreactivity
21 | QVQLVESGGGLVQAGGSLRLSCAASGSIFVNYAMGWYRQAPGKERELVAAISRSGGRTYYADSVKGRFTISRDNAKNTVYLQMNSLKPEDTAVYDCNVYPVLRTIEGDYWGQGTQVTVSS | high polyreactivity
22 | QVQLVESGGGLVQEGGSLRLTCAASGSTFIGNAMGGYRQAPGKERELVAAITSSGGSTYYADSVKGRFTISRDNAKNTVYLQMNSLKPEDTALYYCAAKTWARGHYGYQARSNYWGQGTQVTVSS | high polyreactivity

Row | Sequence | polyreactivity (PSR sort gate)
23 | QVQLVESGGGLVQAGGSLRLSCAASGSTFTYYAMGWYRQAPGKERELVAAISRSGGNTYYADSVKGRFTISRDNAKNTVYLQMNSLKKEDTAVYYCAAYRQVYGFDYWGQGTQVTVSS | high polyreactivity
24 | QVQLVESGGGLVQAGGSLRLSCAASGFIFRYYAMGWYRQAPGKERELVAAIRRGGSTYYADSVKGRFTISRDNAKNTVYLQMNSLKPEDTAVYYCAASFWGIAMGYWGQGTQVTVSS | high polyreactivity
25 | QVQLVESGGGLVQAGGSLRLSCAASGSIFLSYTMGRYRQAPGKERELVAAITSGGSTKYADSVKGRFTISRDNAKNTVYLQMNSLKPEDTAVYYCNATPYSRLGYWGQGTQVTVSS | high polyreactivity
26 | QVQLVESGGGLVQAGGSLRLSCAASGRIFPPYDMGWYRQAPGKETELVAAISYRGGSTYYADSVKGRFTISRDNAKNTVYLQMNSLKPEVTAVYYCNVGSRGGWDASDYDYWGQCTQVTVSS | high polyreactivity
27 | QVRLVESGGGLVQAGRSLRLSCAASGRIFWNYAMGWYRQAPGKERELVATIDKSGGSTRYADSVKGRFTISRDTAKNTVYLQMNSLKPEDTAVYYCAARGPASRGFRGARSGLTFDYWGQGTQVTVSS | low polyreactivity
28 | QVQLQESGGGLVQAGGSLRLSCAVSGTIFFPQDKGWYRQAPGREREYGAAIAEGTSTYYADSVKGRFTISRDNAKNTVYPQMYSLKPEDTEVNYCAAYRSTPQQFLYWGQGTQVTVSS | high polyreactivity
29 | QVQLQESGGGLVQAGGSLRLSCAASGNISVTGFMGWYRQAPGKERELVASIGIGGTTYYADSVKGRFSISRDNAKNTVYLQMNSLKPEDTAVYYCAARYLYYAYSYWGQATQVTVSS | low polyreactivity
30 | QVQLVESGGGLLQAGGSLRLSCAASGFTFRVNAMGWYRQAPGKERELVASITVSDARTYYADSVKGRFTISRDNAKNTVYLQMNSLKPEDTAVYYCAADYKGAFTTDWSSEYEYWGQGTQVTVSS | low polyreactivity
31 | QVQLVESGGGLVQAGGSLRLSCAASGFTFTYNDMGWYIQAPGKEREFVAAISSTGGSTYYADSVKGRFTISRDNAKNTVYLQMNSLKAEDTAVYYCAAEDSWYWDAWFDYWGQGTQVTVSS | low polyreactivity
32 | QFQLVESGGGLVQAGGSLRLSCAASGRIFSHYAMGCYRQAPGKERELVAAISSGGITYYADSVNGRFTISRDNAKNTVYLQRNSLKPEDTAVYYCAAVRRRGTTYDYWGQGTQVTVSS | high polyreactivity
33 | QVQLVESGGGLVQAGGSLRLSCAASGSIFSYYAMGWYRQAPGKERELVAAITGGGTTNYADSVKGRFTISRDNAKNTDYLQMNSLKPEDTAVYYCAADEPDVFAPGLYYWGQGTQVTLSS | low polyreactivity
34 | QVHLVESGGGLVEAVGSLRLSCAASGRIFARYAMGCYRQAPGKERQLVATITRVGSTNYADSVKRPFTISRDNAKTTVYLQMNSLKPEDTEGFYCNADIRRNGGYAHEYWVQGTQVTVSS | low polyreactivity
35 | QVQLVESGGGLVQAGGSLRLSCAASGRIFVYYAMGWYRQAPGKERELVATISSGGSTYYADSVKGRFTISRDNAKNTVYLQMNSLKPEDTAVYYCAADNVIRYLAYYYKGDYWGQGTQVTVSS | low polyreactivity
36 | QVQLVESGGGLVQAGGSLRLSCAASGRIFSSYAMGWYRQAPGKERELVAANSRSGARTYYADSVKGRFTISRDNAKNTVYLQMNSLKPEDTAVYYCAAVTVAGYDYWGQGTQVTVSS | high polyreactivity
37 | QVQLVESGGGLVQAGGSLRLSCAASGSIFDVNAMGWYRQAPGKERELVAAITWSGGITYYADSVKGRFTISRDNAKNTVYLQMNSLKPEDTAVYYCNVYVTAGEEDEYWGQGTQVTVSS | low polyreactivity
38 | QVQLVESGGGLVQAGGSLRLSCAASGITSWYYAMGWYRQAPGKERELVAAITSDGRTNYADSVKGRFTISRDNAKNTVYLQMNSLKPEDTAVYYCAAARRVGVSHYRYGYWGQGTQVTVSS | high polyreactivity
39 | QVQLAESGGGLVQAGGSLRLSCAASGIIFYFYAMGWYRQAPGKERELVAAISGTGGRTYYADSVKGRFTISRDNAKNTVYLQMNSLKPEDTAVYYCNADDTPVPSIRFDYWGQGTQVTVSS | low polyreactivity
40 | QVQLVESGGGLVQAGGSLRLSCAASGSIFHYNSMGWDRQAPGKEWGLVASMSSGGRTYYADSVKGRFTISRDNPKNTVYLQMNSLKPDDTAVYYCAAEYYQTTYVWWTYDYYGGQGTQVTVSS | low polyreactivity
41 | QVQLVESGGGLVQAGGSLRLSCAASGSIYTNAMGWYRQAPGKERELVAAISWSGGRTYYADSVKGRFTISRDNAKNTVYLQMNSLKPEDTAVYYCNTRGTRIASGHYYWGQGTQVTVSS | high polyreactivity
42 | QVQLVESGGGLVQAGGSLRLSCAASGRIFWGYAMGWYRQAPGKERELVARITSGGDTYYADSVKGRFTISRDNAKNTVYLQMNSLKPEDTAVYYCAISTAVKPYAYRESGFIYDYWGQGSQVTVSS | low polyreactivity
43 | QVQLVESGGGLVQAGGSLRLSCADSGSTFRRNVMGWYRQAPGKERELVASIRSGGTTNYADSVKGRFTISRDNAKNTVYLQMNSLKPEDTAVYYCAAARSRGYYRASAVVLYGYWGQGTQVTVSS | high polyreactivity
